In publication PMC11591715 (2024):

Key:
Assay in all cases: BLI
[1] = target: m801.2 (anti-EpCAM-IL-2v immunocytokine, 2 anti-EpCAM Fab + 1 IL-2v, IL-2v fused at the C-terminus of IgG1 Fc) (human | , UniProt P60568 21-153, F42A | Y45A | L72G)
[2] = target: T1, m801.3 (anti-EpCAM-IL-2v immunocytokine, 1 anti-EpCAM Fab + 1 IL-2v, IL-2v fused at the N-terminus of the Fc … ( | human, UniProt P60568 21-153, F42A | Y45A | L72G))
[3] = target: T1, m801.3 (anti-EpCAM-IL-2v …); remark: listed apart in the source

B1: IL-2 receptor β subunit (IL-2Rβ) (receptor)
chain: AVNGTSQFTCFYNSRANISCVWSQDGALQDTSCQVHAWPDRRRWNQTCELLPVSQASWACNLILGAPDSQKLTTVDIVTLRVLCREGVRWRVMAIQDFKPFENLRLMAPISLQVVHVETHRCNISWEISQASHYFERHLEFEARTLSPGHTWEEAPLLTLKQKQEWICLETLTPDTQYEFQVRVKPLQGEFTTWSPWSQPLAFRTKPAALGKDTIPWLGHLLVGLSGAFGFIILVYLLINCRNTGPWLKKVLKCNTPDPSKFFSQLSSEHGGDVQKWLSSPFPSSSFSPGGLAPEISPLEVLERDKVTQLLLQQDKVPEPASLSSNHSLTSCFTNQGYFFFHLPDALEIEACQVYFTYDPYSEEDPDEGVAGAPTGSSPQPLQPLSGEDDAYCTFPSRDDLLLFSPSLLGGPSPPSTAPGGSGAGEERMPPSLQERVPRDWDPQPLGPPTPGVPDLVDFQPPPELVLREAGEEVPDAGPREGVSFPWSRPPGQGEFRALNARLPLNTDAYLSLQELQGQDPTHLV
modifications: biotin (biotinylated antigen)
koff [1]: 0.00412 s⁻¹ | koff [2]: 0.00784 s⁻¹ | Kd [3]: 55.6 nM
